According to PMC9060444 (2022):

Columns and labels:
[1] = target: human C1s enzyme (activated C1s) (human)
[2] = target: GST-ElpB (B. burgdorferi strain B31); test: SPR; Biacore T200; GST-ElpB or GST-ElpQ immobilised on the sensor chip; C1 complex (twofold series 0.6 to 150 nM), C1r or C1s enzyme or proenzyme injected as analyte; steady-state affinity fits; triplicate
[3] = target: GST-ElpQ (B. burgdorferi strain B31); test: as above
[4] = target: human complement C1 complex (human) (UniProt P02745)
[5] = target: human C1r enzyme (activated C1r) (human); test: ELISA; ELISA-type binding assay: GST-fusion proteins on wells coated with human C1 complex, C1q, C1r enzyme or C1s enzyme; apparent KD by nonlinear regression (GraphPad Prism)
[6] = target: human complement C1 complex (human) (UniProt P02745); test: as above
[7] = target: human C1s enzyme (activated C1s) (human); test: as above
[8] = target: T1, human C1s enzyme (activated C1s) (human); test: SPR
T1 chain 1: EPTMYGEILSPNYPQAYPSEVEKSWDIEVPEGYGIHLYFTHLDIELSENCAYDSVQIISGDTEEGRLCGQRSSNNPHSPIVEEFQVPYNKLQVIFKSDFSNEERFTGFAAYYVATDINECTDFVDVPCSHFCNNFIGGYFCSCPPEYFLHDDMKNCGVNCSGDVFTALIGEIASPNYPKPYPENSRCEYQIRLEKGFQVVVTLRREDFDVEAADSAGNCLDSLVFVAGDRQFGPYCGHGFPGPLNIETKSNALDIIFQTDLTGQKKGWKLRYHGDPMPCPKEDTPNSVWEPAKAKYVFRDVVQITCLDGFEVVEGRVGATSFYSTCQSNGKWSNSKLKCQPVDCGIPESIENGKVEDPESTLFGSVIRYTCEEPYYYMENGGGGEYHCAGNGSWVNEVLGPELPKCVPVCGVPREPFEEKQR
T1 chain 2: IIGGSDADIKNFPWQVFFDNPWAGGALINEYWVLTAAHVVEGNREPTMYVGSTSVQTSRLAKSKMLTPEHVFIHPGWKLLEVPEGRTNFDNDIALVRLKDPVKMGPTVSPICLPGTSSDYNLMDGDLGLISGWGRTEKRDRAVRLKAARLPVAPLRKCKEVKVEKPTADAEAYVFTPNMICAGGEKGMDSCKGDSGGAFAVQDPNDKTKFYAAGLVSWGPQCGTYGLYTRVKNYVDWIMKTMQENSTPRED

For tagless ElpB (natural protein), the IC50 of inhibition of the cleavage of C2 by C1s enzyme (SDS/PAGE) [1] was 0.87 µM.

With “human complement C1 complex (from UniProt P02745 23-245; P02746 28-253; P02747 29-245)” the Kd [2] was 5.6 nM.

For human C1s proenzyme, the Kd [2] was 270 nM and the Kd [3] was 170 nM.

“GST-BBK32 (from UniProt O50835 1-354) (natural protein)” was tested, and the IC50 of inhibition of C3b deposition from normal human serum on IgM-coated wells (ELISA) [4] was 29 nM, the IC50 of inhibition of C5b-9 deposition from normal human serum on IgM-coated wells (ELISA) [4] was 100 nM and the IC50 of inhibition of classical-pathway lysis of antibody-sensitised sheep erythrocytes by normal human serum [4] was 79 nM.

With BBK32-C (domain or fragment) the IC50 of inhibition of C4b deposition from normal human serum on IgM-coated wells (ELISA); by the table's footnote based on the non-GST-tagged BBK32-C construct [4] was 18 nM.

tagless ElpQ (natural protein) showed an IC50 of inhibition of the cleavage of C2 (685 nM) by C1s enzyme (6.25 nM), SDS/PAGE densitometry of C2b, ElpQ 16 to 0.13 uM, 1 h at 37 C [1] of 1.4 µM and an IC50 of inhibition of the cleavage of C4 (616 nM) by C1s enzyme (6.25 nM), SDS/PAGE densitometry of C4 alpha', ElpQ 25 to 0.20 uM, 1 h at 37 C [1] of 11 µM.

In the case of human C1s enzyme (activated C1s), the Kd [2] is reported as 3.9 nM and the Kd [3] is reported as 4.5 nM.

human C1r enzyme (activated C1r) was tested, and the Kd [2] was 100 nM and the Kd [3] was 97 nM.

For GST-ElpB (natural protein), the Kd [5] was 41 nM, the Kd [6] was 3.4 nM and the Kd [7] was 6.7 nM. It also gave an IC50 of inhibition of C3b deposition from normal human serum on IgM-coated wells (ELISA) [4] of 570 nM, an IC50 of inhibition of C4b deposition from normal human serum on IgM-coated wells (ELISA) [4] of 330 nM and an IC50 of inhibition of C5b-9 deposition from normal human serum on IgM-coated wells (ELISA) [4] of 300 nM. The IC50 of inhibition of classical-pathway lysis of antibody-sensitised sheep erythrocytes by normal human serum [4] was 1600 nM.

GST-ElpQ (natural protein) showed a Kd [5] of 11 nM, a Kd [6] of 3.8 nM and a Kd [7] of 4.7 nM. The IC50 of inhibition of C3b deposition from normal human serum on IgM-coated wells (ELISA) [4] was 450 nM, the IC50 of inhibition of C4b deposition from normal human serum on IgM-coated wells (ELISA) [4] was 260 nM and the IC50 of inhibition of C5b-9 deposition from normal human serum on IgM-coated wells (ELISA) [4] was 1000 nM. The IC50 of inhibition of classical-pathway lysis of antibody-sensitised sheep erythrocytes by normal human serum [4] was 1500 nM.

B1: tagless ElpQ (natural protein)
chain: CKNFATGKDIKQNSEGKIKGFVNKILDPVKDKIASSGTKVDEVAKKLQEEEKEELMQGDDPNGSGINPPPVLPENIHNNALVLKAIEQSDGQQEKKVEEAEAKVEENKEKQENTEENIKEKEIIDEQNKQELAKAKEEEQQKEQKRHQEEQQRKAKAEKEKREREEAEQQKRQQEEEEKRQVDNQIKTLIAKIDEINENIDVIKWQTTVGPQGVIDRITGPVYDDFTNGNNSIRETWEGLEEESEDEGLGKLLKELSDARDALRTKLNEGNKPYTGYEEPKLKESVNVSEIKEDLEKLKSKLEEVKKYLKDSSKFEEIKGYISDSQ
Molecule B1 has a Kd [8] of 15 nM.

B2: GST-ElpQ (natural protein)
chain: B1 chain
B2 gave a Kd [8] of 16.5 nM.
